Results on 4 molecules are retold here after patent US20240116985A1 (published 2024).

Starred links: 1 amine or outer side, 2 acyl side, 3 side chain; linkers in the order of their positions; H or OH if unused. Positions of bridges follow the written chain, without caps; N, C: chain ends. Non-standard residues stand in square brackets, D forms with d. Primed or numbered codes have the meaning given here. *: point of attachment. PyrS2(3) = (S)-3-amino-1-((pent-4-en-1-yloxy)carbonyl)pyrrolidine-3-carboxylic acid, stapling residue, C=CCCCOC(=O)N1CC[C@@](N[*:1])(C(=O)[*:2])C1; PyrS2″ = (S)-3-amino-1-((pent-4-en-1-yloxy)carbonyl)pyrrolidine-3-carboxylic acid (stapling residue), C=CCCCOC(=O)N1CC[C@@](N[*:1])(C(=O)[*:2])C1; B5(5) = 2,2-bis(4-pentenyl)glycine, 2-amino-2-(pent-4-en-1-yl)hept-6-enoic acid (stitching residue), C=CCCCC(CCCC=C)(N[*:1])C(=O)[*:2]; B5(3) = 2,2-bis(4-pentenyl)glycine (stitching residue), C=CCCCC(CCCC=C)(N[*:1])C(=O)[*:2]; Phe(2-Cl) = N[C@@H](Cc1ccccc1Cl)C(=O)O; Bta = N[C@@H](Cc1csc2ccccc12)C(=O)O; αAllylPro = C=CC[C@@]1(C(=O)O)CCCN1; tBuAla = CC(C)(C)C[C@H](N)C(=O)O; 3Thi = N[C@@H](Cc1ccsc1)C(=O)O; S8 = C=CCCCCCC[C@](C)(N)C(=O)O; R5 = C=CCCC[C@@](C)(N)C(=O)O; Ms = CS(=O)(=O)*

For one assay, the target named is T1, B-cat-Halo (UniProt P35222 1-781).
T1 sequence (looked up): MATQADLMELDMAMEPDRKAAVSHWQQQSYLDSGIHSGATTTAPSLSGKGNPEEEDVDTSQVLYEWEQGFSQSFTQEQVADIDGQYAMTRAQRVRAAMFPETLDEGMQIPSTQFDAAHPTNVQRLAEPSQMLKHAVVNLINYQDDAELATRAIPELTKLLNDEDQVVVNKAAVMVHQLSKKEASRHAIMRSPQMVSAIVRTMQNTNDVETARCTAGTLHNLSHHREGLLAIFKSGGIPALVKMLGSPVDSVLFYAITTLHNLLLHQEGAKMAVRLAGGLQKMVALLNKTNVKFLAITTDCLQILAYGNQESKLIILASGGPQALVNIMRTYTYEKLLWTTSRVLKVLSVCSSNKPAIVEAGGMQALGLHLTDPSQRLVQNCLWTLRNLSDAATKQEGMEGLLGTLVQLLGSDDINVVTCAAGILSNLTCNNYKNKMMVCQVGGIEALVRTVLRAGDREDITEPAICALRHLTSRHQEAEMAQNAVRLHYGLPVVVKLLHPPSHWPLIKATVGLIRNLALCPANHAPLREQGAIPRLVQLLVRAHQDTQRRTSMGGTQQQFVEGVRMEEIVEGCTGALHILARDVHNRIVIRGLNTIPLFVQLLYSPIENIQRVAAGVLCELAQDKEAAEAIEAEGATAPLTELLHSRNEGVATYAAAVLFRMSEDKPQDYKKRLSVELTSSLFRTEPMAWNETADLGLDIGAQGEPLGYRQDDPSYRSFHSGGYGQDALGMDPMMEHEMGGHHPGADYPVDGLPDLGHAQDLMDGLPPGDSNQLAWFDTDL
In words: cell-based or functional assay.

Assay [1] deals with T2, full-length beta-Catenin (Uniprot ID P35222) (Homo sapiens (Human), UniProt P35222 2-781).
T2 construct: The assay protocols say only 'full-length'; No tag is stated, although the AlphaScreen kit is a Histidine (Nickel Chelate) kit; also called B-Catenin; bCat
T2 sequence: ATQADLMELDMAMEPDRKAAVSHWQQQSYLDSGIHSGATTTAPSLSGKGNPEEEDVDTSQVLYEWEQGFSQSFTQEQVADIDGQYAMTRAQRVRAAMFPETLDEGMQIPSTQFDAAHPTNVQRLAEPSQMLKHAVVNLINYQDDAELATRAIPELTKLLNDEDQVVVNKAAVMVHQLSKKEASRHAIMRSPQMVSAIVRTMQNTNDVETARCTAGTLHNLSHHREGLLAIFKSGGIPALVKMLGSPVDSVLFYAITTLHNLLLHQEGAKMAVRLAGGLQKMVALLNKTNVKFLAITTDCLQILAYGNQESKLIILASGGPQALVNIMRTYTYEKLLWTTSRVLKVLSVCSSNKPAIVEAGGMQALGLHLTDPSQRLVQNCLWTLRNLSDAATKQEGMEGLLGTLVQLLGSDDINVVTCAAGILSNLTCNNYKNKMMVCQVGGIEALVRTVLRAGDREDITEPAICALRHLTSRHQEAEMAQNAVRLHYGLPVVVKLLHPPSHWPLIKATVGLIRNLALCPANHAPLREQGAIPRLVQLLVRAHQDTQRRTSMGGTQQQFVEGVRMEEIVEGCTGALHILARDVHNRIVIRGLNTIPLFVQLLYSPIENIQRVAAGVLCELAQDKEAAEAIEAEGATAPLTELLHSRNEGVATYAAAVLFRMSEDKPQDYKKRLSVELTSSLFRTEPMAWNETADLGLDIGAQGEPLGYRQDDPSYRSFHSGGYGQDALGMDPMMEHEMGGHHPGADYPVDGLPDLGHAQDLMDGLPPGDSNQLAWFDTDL
The experiment in a line: AlphaScreen competition; peptide titrated against full-length beta-catenin + biotin-TCF4(10-53). The method, then: Equal volume of the titrated peptide was added to the plate and incubated for 15 minutes at 20° C. Then 4 uL of donor and 4 uL acceptor beads at 10 ug/mL were added to the plate, for a 16 uL reaction pool and protected from light for 60 minutes at 20° C. prior to read. Reads were performed on a CLARIOstar plate reader (BMG Labtech) in duplicate, and data were fitted to a 1:1 binding model with hill slope using an in-house script. All provided concentrations are final concentrations.

Assay [2] concerns the target T2, full-length beta-Catenin (Uniprot ID …). In words: fluorescence polarization competition; peptide titrated against full-length beta-catenin + 5FAM-TCF4(10-53) probe. As for the experimental part:
(§1) The plate was incubated protected from light for 60 minutes at 20° C. prior to read. Reads were performed on a CLARIOstar plate reader (BMG Labtech) in duplicate, and data were fitted to a 1:1 binding model with hill slope using an in-house script. All provided concentrations are final concentrations.

The target of assay [3] is T3, full-length beta-Catenin (Uniprot ID P35222) (Homo sapiens (Human), UniProt P35222 2-781).
T3 construct: The fluorescence polarization protocol says only 'full-length'; also called bCat; B-Catenin
T3 sequence: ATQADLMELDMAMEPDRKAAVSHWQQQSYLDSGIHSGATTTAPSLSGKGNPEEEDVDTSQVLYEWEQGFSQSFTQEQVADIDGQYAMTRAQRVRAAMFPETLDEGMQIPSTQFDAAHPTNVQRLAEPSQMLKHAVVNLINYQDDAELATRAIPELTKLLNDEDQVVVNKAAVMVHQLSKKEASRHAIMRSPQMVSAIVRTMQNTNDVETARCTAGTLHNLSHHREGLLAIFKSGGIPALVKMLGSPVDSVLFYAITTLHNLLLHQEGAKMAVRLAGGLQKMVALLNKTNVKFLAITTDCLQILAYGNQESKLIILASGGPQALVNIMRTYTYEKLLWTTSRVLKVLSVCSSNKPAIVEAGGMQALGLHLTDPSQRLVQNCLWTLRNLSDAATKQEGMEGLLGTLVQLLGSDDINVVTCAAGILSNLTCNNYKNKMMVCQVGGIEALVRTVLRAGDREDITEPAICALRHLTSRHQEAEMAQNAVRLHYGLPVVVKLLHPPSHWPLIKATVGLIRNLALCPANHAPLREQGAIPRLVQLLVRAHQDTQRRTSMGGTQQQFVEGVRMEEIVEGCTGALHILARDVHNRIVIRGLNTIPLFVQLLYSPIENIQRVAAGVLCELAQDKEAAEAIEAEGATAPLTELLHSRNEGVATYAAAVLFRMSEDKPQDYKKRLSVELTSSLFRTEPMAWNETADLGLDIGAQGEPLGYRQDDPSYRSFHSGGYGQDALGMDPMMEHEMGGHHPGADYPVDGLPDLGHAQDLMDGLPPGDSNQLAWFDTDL
In words: fluorescence polarization competition; full-length beta-catenin + 5FAM-TCF4(10-53) probe; peptide titrated. As for the experimental part:
as §1
(Fluorescence polarisation rises when a labelled molecule tumbles more slowly, as on binding a larger partner.)

Assay [4] deals with T4, full-length beta-Catenin (Uniprot ID P35222) (Homo sapiens (Human), UniProt P35222 2-781).
T4 construct: also called bCat; B-Catenin
T4 sequence: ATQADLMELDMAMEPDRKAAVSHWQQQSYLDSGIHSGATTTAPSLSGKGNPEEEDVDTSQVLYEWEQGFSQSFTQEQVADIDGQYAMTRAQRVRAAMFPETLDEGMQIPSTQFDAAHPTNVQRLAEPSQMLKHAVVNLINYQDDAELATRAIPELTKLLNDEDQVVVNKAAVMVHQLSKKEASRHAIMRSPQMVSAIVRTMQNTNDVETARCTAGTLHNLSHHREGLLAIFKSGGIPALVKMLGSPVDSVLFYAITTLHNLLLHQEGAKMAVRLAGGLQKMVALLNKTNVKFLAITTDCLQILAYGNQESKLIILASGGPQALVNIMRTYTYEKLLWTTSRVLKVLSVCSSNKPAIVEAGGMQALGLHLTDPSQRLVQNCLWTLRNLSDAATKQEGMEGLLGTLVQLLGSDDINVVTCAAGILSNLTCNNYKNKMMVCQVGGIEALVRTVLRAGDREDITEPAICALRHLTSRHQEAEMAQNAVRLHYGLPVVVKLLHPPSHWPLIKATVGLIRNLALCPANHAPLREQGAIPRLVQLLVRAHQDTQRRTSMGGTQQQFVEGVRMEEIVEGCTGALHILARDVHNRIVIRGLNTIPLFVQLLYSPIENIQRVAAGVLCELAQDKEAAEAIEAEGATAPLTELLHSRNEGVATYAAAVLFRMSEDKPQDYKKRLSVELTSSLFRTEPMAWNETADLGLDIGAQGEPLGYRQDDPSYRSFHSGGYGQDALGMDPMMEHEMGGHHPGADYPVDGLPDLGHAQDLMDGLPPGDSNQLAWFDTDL
The experiment in a line: fluorescence polarization competition, displacement of 5FAM-TCF4 10-53 from full-length beta-catenin. As for the experimental part: as §1

Assay [5] concerns the target T5, beta-catenin in DLD1 TCF/LEF luciferase reporter cells (UniProt P35222 1-781).
T5 sequence (looked up): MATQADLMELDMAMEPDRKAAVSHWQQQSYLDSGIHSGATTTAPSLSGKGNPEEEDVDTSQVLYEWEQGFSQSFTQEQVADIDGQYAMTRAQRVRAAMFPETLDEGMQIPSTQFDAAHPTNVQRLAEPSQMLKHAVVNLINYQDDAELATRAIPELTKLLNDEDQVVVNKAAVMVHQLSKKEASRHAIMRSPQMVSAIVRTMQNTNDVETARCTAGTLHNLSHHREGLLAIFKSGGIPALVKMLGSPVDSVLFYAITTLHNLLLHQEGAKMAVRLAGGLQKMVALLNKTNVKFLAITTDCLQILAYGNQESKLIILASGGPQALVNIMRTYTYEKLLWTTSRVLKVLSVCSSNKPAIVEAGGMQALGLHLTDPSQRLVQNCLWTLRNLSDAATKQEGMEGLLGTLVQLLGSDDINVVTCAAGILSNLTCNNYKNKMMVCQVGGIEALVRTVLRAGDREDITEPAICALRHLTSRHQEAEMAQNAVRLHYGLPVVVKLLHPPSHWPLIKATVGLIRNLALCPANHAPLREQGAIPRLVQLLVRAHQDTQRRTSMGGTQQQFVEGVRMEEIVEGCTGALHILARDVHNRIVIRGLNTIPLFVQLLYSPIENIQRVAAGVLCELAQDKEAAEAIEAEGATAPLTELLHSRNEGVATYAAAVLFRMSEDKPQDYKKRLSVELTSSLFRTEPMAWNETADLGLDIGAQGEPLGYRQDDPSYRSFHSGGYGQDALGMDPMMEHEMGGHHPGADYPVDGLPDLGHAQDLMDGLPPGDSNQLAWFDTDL
The experiment in a line: cell-based or functional assay.

B1: I-357 (peptide)
peptide: XDAXDDAAFVXFAQ
modifications: not fully specified; N-terminal Ac; C-terminal NH2; PL3 at 1, B5 at 4, S8 at 11 (stapled 1-4 and 4-11)
notes: Stapled peptide composition; Earlier-eluting isomer composition; also called Ac-PL3-Asp-Ala-B5-Asp-Asp-Ala-Ala-Phe-Val-S8-Phe-Ala-Gln-NH2
Usually EC50 stands for the concentration at which the effect is half-maximal. As to B1, in the assay with B-cat-Halo, the “NanoBRET % inh @ 10 uM” value was -5.3%. Also, the EC50 in assay [1] was 10 µM; in assay [2], 5 µM.

B2: I-711 (peptide)
peptide: Ms-[αAllylPro]DI[B5(5)]DEAAFQ[S8]F[Bta]Q-NH2
modifications: staple 1-4, 4-11
notes: Stapled peptide composition; Later-eluting HPLC isomer peak (I-710 is the earlier one); also called MeSO2-PL3-Asp-Ile-B5-Asp-Glu-Ala-Ala-Phe-Gln-S8-Phe-BztA-Gln-NH2
For the molecule B2, in assay [3], the EC50 turned out to be 0.088 µM.

B3: I-1183 (peptide)
peptide: Ac-PD[tBuAla][R5]DDAAFN[PyrS2(3)][Phe(2-Cl)][Bta]Q-NH2
modifications: staple 4-11
notes: Stapled peptide, one staple. '2C1F' as printed (2ClF)
As a reminder, the IC50 is the concentration that gives 50% inhibition. High values mean weaker potency in that assay, low ones greater potency in that assay. For the molecule B3, the IC50 in assay [4] worked out at 0.409 µM.
Consider Ac-[αAllylPro]D[tBuAla][B5(3)]DDAAFF[PyrS2″][3Thi][Bta]Q-NH2 (staple 1-4, 4-11) [I-807], for which the “DLD1 reporter assay Abs IC50” value in assay [5] worked out at 3.4 µM.
